Assay results reported in publication PMC6478338, “Peptide barcoding for establishment of new types of genotype–phenotype linkages” (PLoS ONE, 2019).

Target: T1, Recombinant human sCD4 CF (Homo sapiens, UniProt P01730)
T1 construct: CD4, human, soluble recombinant form (sCD4, carrier-free); it is probably the extracellular domain of CD4 (surmised); also called recombinant CD4; source: bought: R&D Systems
Test: SPR; Biacore T-200; sCD4 (2486.9 RU) or GFP (1189.8 RU) immobilised on CM5 chip; nanobodies flowed in HBS-EP (0.01 M HEPES pH 7.4, 0.15 M NaCl, 3 mM EDTA, 0.005% P20): anti-CD4 0.2-1.0 uM, anti-GFP 0.5-50 nM; 30 uL/min, contact 120 s, dissociation 120 s
Settings: both partners purified

| Kd | koff | kon | Binder |
| --- | --- | --- | --- |
| 42 nM | 0.0054 s⁻¹ | 68000 M⁻¹ s⁻¹ | Anti-CD4-FLAG nanobody (VHH, also called anti-CD4 nanobody; source: Pichia pastoris GS115, secreted; culture supernatant filtered, concentrated and buffer-replaced with PBS) VHH: EVQLVESGGGSVQPGGSLTLSCGTSGRTFNVMGWFRQAPGKEREFVAAVRWSSTGIYYTQYADSVKSRFTISRDNAKNTVYLEMNSLKPEDTAVYYCAADTYNSNPARWDGYDFRGQGTQVTVSS |
| 52 nM | 0.004 s⁻¹ | 77000 M⁻¹ s⁻¹ | Anti-CD4-FLAG-Barcode 1 nanobody (VHH, also called peptide-barcoded anti-CD4 nanobody; source: Pichia pastoris GS115, secreted; culture supernatant filtered, concentrated and buffer-replaced with PBS; purified with anti-FLAG gels (immunostaining)) VHH: EVQLVESGGGSVQPGGSLTLSCGTSGRTFNVMGWFRQAPGKEREFVAAVRWSSTGIYYTQYADSVKSRFTISRDNAKNTVYLEMNSLKPEDTAVYYCAADTYNSNPARWDGYDFRGQGTQVTVSS |
